In publication PMC3448639:

Assay: 6% PFO-PAGE immunoblot
Details: glycan lost; control: wild type

B1: SR-BI (scavenger receptor class B type I; CLA-1): T175A (protein)
parent chain: MGCSAKARWAAGALGVAGLLCAVLGAVMIVMVPSLIKQQVLKNVRIDPSSLSFNMWKEIPIPFYLSVYFFDVMNPSEILKGEKPQVRERGPYVYREFRHKSNITFNNNDTVSFLEYRTFQFQPSKSHGSESDYIVMPNILVLGAAVMMENKPMTLKLIMTLAFTTLGERAFMNRTVGEIMWGYKDPLVNLINKYFPGMFPFKDKFGLFAELNNSDSGLFTVFTGVQNISRIHLVDKWNGLSKVDFWHSDQCNMINGTSGQMWPPFMTPESSLEFYSPEACRSMKLMYKESGVFEGIPTYRFVAPKTLFANGSIYPPNEGFCPCLESGIQNVSTCRFSAPLFLSHPHFLNADPVLAEAVTGLHPNQEAHSLFLDIHPVTGIPMNCSVKLQLSLYMKSVAGIGQTGKIEPVVLPLLWFAESGAMEGETLHTFYTQLVLMPKVMHYAQYVLLALGCVLLLVPVICQIRSQVGAGQRAARADSHSLACWGKGASDRTLWPTAAWSPPPAAVLRLCRSGSGHCWGLRSTLASFACRVATTLPVLEGLGPSLGGGTGS
With B1 the oligomerisation was “no change”.
